According to article PMC2275093:

T1: Cren7 (recombinant) (Sulfolobus solfataricus P2, UniProt Q97ZE3 1-60)
T1 sequence: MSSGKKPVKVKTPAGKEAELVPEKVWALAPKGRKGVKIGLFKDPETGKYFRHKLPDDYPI


Columns and labels:
Cren7 (recombinant) [1] = target: T1, Cren7 (recombinant); assay: NMR 1H-15N HSQC titration
Cren7 (recombinant) [2] = target: T1, Cren7 (recombinant); assay: EMSA

Binder	binding result (Cren7 (recombinant) [1])	Kd (Cren7 (recombinant) [2]) [nM]
10-bp duplex (dsDNA) DNA 1: GCGAATTCGC DNA 2: GCGAATTCGC	binds	–
poly(GACT)15 60 nt ssDNA (ssDNA) DNA: GACTGACTGACTGACTGACTGACTGACTGACTGACTGACTGACTGACTGACTGACTGACT	–	~2500
